Reference: patent publication EP4682162A1 (Neowise Biotechnology Co., Ltd., dated 2026)

biological target: T1, labeled peptide-MHC (HLA-A*02:01) tetramer (…-HLA-A*02:01 tetramer) (human); test: tetramer staining of sorted T cell clones, flow cytometry
T1 construct: Labeled tetramer used for flow cytometry staining; also called pMHC; pMHC tetramer

Binder	binding result
nwTCR-3125 (TCR, V domains shown, TCR on T cells) V domain 1: QKEVEQNSGPLSVPEGAIASLNCTYSDRVSQSFFWYRQYSGKSPELIMSIYSNGDKEDGRFTAQLNKASQYVSLLIRDSQPSDSATYLCALVSGTYKYIFGTGTRLKVLA V domain 2: DTAVSQTPKYLVTQMGNDKSIKCEQNLGHDTMYWYKQDSKKFLKIMFSYNNKELIINETVPNRFSPKSPDKAHLNLHINSLELGDSAVYFCASSPGLAYEQYFGPGTRLTVTE	binds
nwTCR-2555 (TCR, V domains shown, TCR on T cells) V domain 1: AQSVSQHNHHVILSEAASLELGCNYSYGGTVNLFWYVQYPGQHLQLLLKYFSGDPLVKGIKGFEAEFIKSKFSFNLRKPSVQWSDTAEYFCAVKMDSSYKLIFGSGTRLLVRP V domain 2: DGGITQSPKYLFRKEGQNVTLSCEQNLNHDAMYWYRQDPGQGLRLIYYSQIVNDFQKGDIAEGYSVSREKKESFPLTVTSAQKNPTAFYLCASLGLNYNEQFFGPGTRLTVLE	binds
nwTCR-2286 (TCR, V domains shown, TCR on T cells) V domain 1: GQQLNQSPQSMFIQEGEDVSMNCTSSSIFNTWLWYKQDPGEGPVLLIALYKAGELTSNGRLTAQFGITRKDSFLNISASIPSDVGIYFCAGPEDDKIIFGKGTRLHILP V domain 2: DSGVTQTPKHLITATGQRVTLRCSPRSGDLSVYWYQQSLDQGLQFLIQYYNGEERAKGNILERFSAQQFPDLHSELNLSSLELGDSALYFCASSPWLQGGNEQFFGPGTRLTVLE	binds
nwTCR-2418 (TCR, V domains shown, TCR on T cells) V domain 1: DQQVKQNSPSLSVQEGRISILNCDYTNSMFDYFLWYKKYPAEGPTFLISISSIKDKNEDGRFTVFLNKSAKHLSLHIVPSQPGDSAVYFCAASGVRGQNFVFGPGTRLSVLP V domain 2: DSGVTQTPKHLITATGQRVTLRCSPRSGDLSVYWYQQSLDQGLQFLIQYYNGEERAKGNILERFSAQQFPDLHSELNLSSLELGDSALYFCASSPWLAGGREQYFGPGTRLTVTE	binds
nwTCR-2718 (TCR, V domains shown, TCR on T cells) V domain 1: GQQLNQSPQSMFIQEGEDVSMNCTSSSIFNTWLWYKQDPGEGPVLLIALYKAGELTSNGRLTAQFGITRKDSFLNISASIPSDVGIYFCAGFSQGGSEKLVFGKGTKLTVNP V domain 2: DSGVTQTPKHLITATGQRVTLRCSPRSGDLSVYWYQQSLDQGLQFLIQYYNGEERAKGNILERFSAQQFPDLHSELNLSSLELGDSALYFCASSPWTAGGNTIYFGEGSWLTVVE	binds
nwTCR-2583 (TCR, V domains shown, TCR on T cells) V domain 1: GQSLEQPSEVTAVEGAIVQINCTYQTSGFYGLSWYQQHDGGAPTFLSYNALDGLEETGRFSSFLSRSDSYGYLLLQELQMKDSASYFCALGTEDKIIFGKGTRLHILP V domain 2: EAQVTQNPRYLITVTGKKLTVTCSQNMNHEYMSWYRQDPGLGLRQIYYSMNVEVTDKGDVPEGYKVSRKEKRNFPLILESPSPNQTSLYFCASRISLGANYGYTFGSGTRLTVVE	binds
nwTCR-3095 (TCR, V domains shown, TCR on T cells) V domain 1: DQQVKQNSPSLSVQEGRISILNCDYTNSMFDYFLWYKKYPAEGPTFLISISSIKDKNEDGRFTVFLNKSAKHLSLHIVPSQPGDSAVYFCAAFASDSNYQLIWGAGTKLIIKP V domain 2: DTAVSQTPKYLVTQMGNDKSIKCEQNLGHDTMYWYKQDSKKFLKIMFSYNNKELIINETVPNRFSPKSPDKAHLNLHINSLELGDSAVYFCASSPWTSGGNGELFFGEGSRLTVLE	binds
nwTCR-2523 (TCR, V domains shown, TCR on T cells) V domain 1: RKEVEQDPGPFNVPEGATVAFNCTYSNSASQSFFWYRQDCRKEPKLLMSVYSSGNEDGRFTAQLNRASQYISLLIRDSKLSDSATYLCVVNRGSQGNLIFGKGTKLSVKP V domain 2: DAGVTQSPTHLIKTRGQQVTLRCSPKSGHDTVSWYQQALGQGPQFIFQYYEEEERQRGNFPDRFSGHQFPNYSSELNVNALLLGDSALYLCASSLVDYEQYFGPGTRLTVTE	binds
nwTCR-2916 (TCR, V domains shown, TCR on T cells) V domain 1: GQQLNQSPQSMFIQEGEDVSMNCTSSSIFNTWLWYKQDPGEGPVLLIALYKAGELTSNGRLTAQFGITRKDSFLNISASIPSDVGIYFCAGQDDGGSQGNLIFGKGTKLSVKP V domain 2: DSGVTQTPKHLITATGQRVTLRCSPRSGDLSVYWYQQSLDQGLQFLIQYYNGEERAKGNILERFSAQQFPDLHSELNLSSLELGDSALYFCASSPWTSGGDGELFFGEGSRLTVLE	binds
nwTCR-2316 (TCR, V domains shown, TCR on T cells) V domain 1: TQLLEQSPQFLSIQEGENLTVYCNSSSVFSSLQWYRQEPGEGPVLLVTVVTGGEVKKLKRLTFQFGDARKDSSLHITAAQPGDTGLYLCAGVDNYGQNFVFGPGTRLSVLP V domain 2: DAGVIQSPRHEVTEMGQEVTLRCKPISGHNSLFWYRQTMMRGLELLIYFNNNVPIDDSGMPEDRFSAKMPNASFSTLKIQPSEPRDSAVYFCASSIAALGFGELFFGEGSRLTVLE	binds
nwTCR-1953 (TCR, V domains shown, TCR on T cells) V domain 1: DAKTTQPNSMESNEEEPVHLPCNHSTISGTDYIHWYRQLPSQGPEYVIHGLTSNVNNRMASLAIAEDRKSSTLILHRATLRDAAVYYCILRAGGSGDKLTFGTGTRLAVRP V domain 2: DTEVTQTPKHLVMGMTNKKSLKCEQHMGHRAMYWYKQKAKKPPELMFVYSYEKLSINESVPSRFSPECPNSSLLNLHLHALQPEDSALYLCASSQDPFWGAGELFFGEGSRLTVLE	binds
nwTCR-3028 (TCR, V domains shown, TCR on T cells) V domain 1: SQQGEEDPQALSIQEGENATMNCSYKTSINNLQWYRQNSGRGLVHLILIRSNEREKHSGRLRVTLDTSKKSSSLLITASRAADTASYFCATDVKSSYKLIFGSGTRLLVRP V domain 2: AAGVIQSPRHLIKEKRETATLKCYPIPRHDTVYWYQQGPGQDPQFLISFYEKMQSDKGSIPDRFSAQQFSDYHSELNMSSLELGDSALYFCASSLGLLGNEQFFGPGTRLTVLE	binds
nwTCR-1906 (TCR, V domains shown, TCR on T cells) V domain 1: RKEVEQDPGPFNVPEGATVAFNCTYSNSASQSFFWYRQDCRKEPKLLMSVYSSGNEDGRFTAQLNRASQYISLLIRDSKLSDSATYLCVVTQAGTALIFGKGTTLSVSS V domain 2: not shown	binds
nwTCR-2228 (TCR, V domains shown, TCR on T cells) V domain 1: QKEVEQNSGPLSVPEGAIASLNCTYSDRGSQSFFWYRQYSGKSPELIMFIYSNGDKEDGRFTAQLNKASQYVSLLIRDSQPSDSATYLCAGHTGNQFYFGTGTSLTVIP V domain 2: EPEVTQTPSHQVTQMGQEVILRCVPISNHLYFYWYRQILGQKVEFLVSFYNNEISEKSEIFDDQFSVERPDGSNFTLKIRSTKLEDSAMYFCASREDGYEQYFGPGTRLTVTE	binds
nwTCR-2383 (TCR, V domains shown, TCR on T cells) V domain 1: GIQVEQSPPDLILQEGANSTLRCNFSDSVNNLQWFHQNPWGQLINLFYIPSGTKQNGRLSATTVATERYSLLYISSSQTTDSGVYFCAVMPSGTYKYIFGTGTRLKVLA V domain 2: EAQVTQNPRYLITVTGKKLTVTCSQNMNHEYMSWYRQDPGLGLRQIYYSMNVEVTDKGDVPEGYKVSRKEKRNFPLILESPSPNQTSLYFCASSPSSGYNEQFFGPGTRLTVLE	binds
nwTCR-2970 (TCR, V domains shown, TCR on T cells) V domain 1: QQPVQSPQAVILREGEDAVINCSSSKALYSVHWYRQKHGEAPVFLMILLKGGEQKGHDKISASFNEKKQQSSLYLTASQLSYSGTYFCGTEFRNDYKLSFGAGTTVTVRA V domain 2: EAQVTQNPRYLITVTGKKLTVTCSQNMNHEYMSWYRQDPGLGLRQIYYSMNVEVTDKGDVPEGYKVSRKEKRNFPLILESPSPNQTSLYFCASSPGTGGYGYTFGSGTRLTVVE	binds
nwTCR-2720 (TCR, V domains shown, TCR on T cells) V domain 1: SQQGEEDPQALSIQEGENATMNCSYKTSINNLQWYRQNSGRGLVHLILIRSNEREKHSGRLRVTLDTSKKSSSLLITASRAADTASYFCATDLSGAGSYQLTFGKGTKLSVIP V domain 2: EAQVTQNPRYLITVTGKKLTVTCSQNMNHEYMSWYRQDPGLGLRQIYYSMNVEVTDKGDVPEGYKVSRKEKRNFPLILESPSPNQTSLYFCASSLGTGFGELFFGEGSRLTVLE	binds
nwTCR-2170 (TCR, V domains shown, TCR on T cells) V domain 1: GQQLNQSPQSMFIQEGEDVSMNCTSSSIFNTWLWYKQDPGEGPVLLIALYKAGELTSNGRLTAQFGITRKDSFLNISASIPSDVGIYFCAGQASGTYKYIFGTGTRLKVLA V domain 2: EAQVTQNPRYLITVTGKKLTVTCSQNMNHEYMSWYRQDPGLGLRQIYYSMNVEVTDKGDVPEGYKVSRKEKRNFPLILESPSPNQTSLYFCASSSGTSDEQYFGPGTRLTVTE	binds
nwTCR-2285 (TCR, V domains shown, TCR on T cells) V domain 1: KNEVEQSPQNLTAQEGEFITINCSYSVGISALHWLQQHPGGGIVSLFMLSSGKKKHGRLIATINIQEKHSSLHITASHPRDSAVYICALNSDSNYQLIWGAGTKLIIKP V domain 2: EAQVTQNPRYLITVTGKKLTVTCSQNMNHEYMSWYRQDPGLGLRQIYYSMNVEVTDKGDVPEGYKVSRKEKRNFPLILESPSPNQTSLYFCATSPGTLYEQYFGPGTRLTVTE	binds
nwTCR-2915 (TCR, V domains shown, TCR on T cells) V domain 1: GESVGLHLPTLSVQEGDNSIINCAYSNSASDYFIWYKQESGKGPQFIIDIRSNMDKRQGQRVTVLLNKTVKHLSLQIAATQPGDSAVYFCAESYGQKLLFARGTMLKVDL V domain 2: EAQVTQNPRYLITVTGKKLTVTCSQNMNHEYMSWYRQDPGLGLRQIYYSMNVEVTDKGDVPEGYKVSRKEKRNFPLILESPSPNQTSLYFCASSFWSAGELFFGEGSRLTVLE	binds
nwTCR-2793 (TCR, V domains shown, TCR on T cells) V domain 1: QKEVEQNSGPLSVPEGAIASLNCTYSDRVSQSFFWYRQYSGKSPELIMSIYSNGDKEDGRFTAQLNKASQYVSLLIRDSQPSDSATYLCAVVSSNDYKLSFGAGTTVTVRA V domain 2: EAQVTQNPRYLITVTGKKLTVTCSQNMNHEYMSWYRQDPGLGLRQIYYSMNVEVTDKGDVPEGYKVSRKEKRNFPLILESPSPNQTSLYFCASSPGTIGELFFGEGSRLTVLE	binds
nwTCR-2719 (TCR, V domains shown, TCR on T cells) V domain 1: GIQVEQSPPDLILQEGANSTLRCNFSDSVNNLQWFHQNPWGQLINLFYIPSGTKQNGRLSATTVATERYSLLYISSSQTTDSGVYFCAVLAPGTYKYIFGTGTRLKVLA V domain 2: EAQVTQNPRYLITVTGKKLTVTCSQNMNHEYMSWYRQDPGLGLRQIYYSMNVEVTDKGDVPEGYKVSRKEKRNFPLILESPSPNQTSLYFCASSWGSGYEQYFGPGTRLTVTE	binds
